The target in this series is T1, DEK (Homo sapiens, UniProt P35659 P35659:1-375).
T1 sequence: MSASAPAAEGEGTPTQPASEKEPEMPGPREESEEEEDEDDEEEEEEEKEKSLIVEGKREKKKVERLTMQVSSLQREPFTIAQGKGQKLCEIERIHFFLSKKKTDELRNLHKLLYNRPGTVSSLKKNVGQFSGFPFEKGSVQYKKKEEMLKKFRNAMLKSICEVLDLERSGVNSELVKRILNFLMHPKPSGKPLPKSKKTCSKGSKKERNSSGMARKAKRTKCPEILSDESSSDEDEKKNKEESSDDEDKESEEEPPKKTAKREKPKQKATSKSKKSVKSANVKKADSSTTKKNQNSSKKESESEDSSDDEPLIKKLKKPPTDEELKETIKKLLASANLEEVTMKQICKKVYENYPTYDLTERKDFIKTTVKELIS
The series is described as follows: Southwestern blot on denatured DEK with salmon sperm DNA competitor; 300 mM NaCl wash; not quantitated; clones preselected by dot blot filter binding. To be noted: tags: His-tag (pBlueBacHis2A baculovirus, HighFive cells, Ni-NTA purified); label: 5'-32P. The procedure: After determining the sequences of individual aptamer clones, the corresponding DNA oligonucleotides with and without 5′ and 3′ priming sequences were ordered from IDT (Coralville, Iowa), and radiolabeled with ³²P according to the NEB T4 Kinase kit protocol as above. Binding was then tested using a southwestern blot of purified DEK protein. A conventional western blot was performed using PVDF Immobillon P (EMDMillipore, Darmstadt, Germany). After the transfer, the membrane was soaked in PreHyb buffer [(10 mM Hepes (pH 7.9), 100 ug/mL salmon sperm DNA (Sigma-Aldrich, St. Louis, Mo.), 5% bovine serum albumin (Sigma-Aldrich, St. Louis, Mo.)] for 30 min on the shaker at room temperature to block the membrane. The PreHyb buffer was then removed and 5 mL of Hyb Buffer [(10 mM Hepes (pH 7.9), 50 mM NaCl, 1 mM EDTA, 1 mM DTT, 0.25% BSA, 2 ug/ul salmon sperm DNA, 50 million CPM aptamer)] was added and incubated on the shaker at room temperature for one hour. The Hyb Buffer was removed and the membrane was washed 3× on the shaker at room temperature for 20 min with wash buffer [(10 mM Hepes (pH 7.9), 300 mM NaCl, 1 mM EDTA, 1 mM DTT, 0.25% BSA)]. The membranes were dried and exposed on a Typhoon Phosphor imager (GE Healthcare, Pittsburgh, Pa.) cassette overnight to visualize the radiolabeled DNA bound to the bands corresponding to DEK protein. […] No quantitation was determined.

B1: DEK aptamer 85 (ssDNA)
DNA: ATAGGGAGTCGACCGACCAGAATACCGTGGCATCTGGTTGTAGCATCACGTCTTATGCGGCCGTATGTGCGTCTACATCTAGACT
On to B1, for which the binding result is reported as “binds”.

B2: DEK aptamer 64 (ssDNA)
DNA: ATAGGGAGTCGACCGACCAGAAGGGGTTAAATATTCCCACATTGCCTGCGCCAGTACAAATAGTATGTGCGTCTACATCTAGACT
As to B2, the binding result is recorded as “binds”.
